“Also recorded” adds a separate entry of the source.
Assays:
[1] = Concentration-dependent peptide binding to hyaluronic acid coating (biotin-streptavidin fluorescence)
Description: (§1) Peptides were incubated 24 hours at 37° C. Coatings (10 μg/cm^2) were previously dried overnight in milli-Q water. Overall significance was assessed using analysis of variance, with Tukey's multiple comparison post-hoc analysis between 1-scrm and experimental groups where n=4.
N-termini biotinylated peptides were added to coated plates at 0, 1, 2.5, 5 and 10 mg/ml overnight at 37° C. in phosphate buffered saline (PBS), pH 7.4, after which the plates were washed three times with PBS.

[2] = ECM specificity binding test, hyaluronic acid coating; details: 5.0 mg/ml peptide, FIG. 4
Description: as §1, with “C. on collagens I-IV, elastin, hyaluronic acid, and Geltrex.” for “C.”, “pig/cm^2)” for “μg/cm^2)”, “ECM” for “1-scrm and experimental”
(§2) Hyaluronic acid, collagens I, II, III, and IV, elastin, and Geltrex were coated onto 96-well black plates (medium binding affinity) at 10 μg/cm^2 and were dried in milli-Q water at room temperature. N-termini biotinylated peptides were added to coated plates at 0, 1, 2.5, 5 and 10 mg/ml overnight at 37° C. in phosphate buffered saline (PBS), pH 7.4, after which the plates were washed three times with PBS. Fluorescent streptavidin-488 (4 μg/mL) was added to each well and incubated at 37° C. temperature for 24 hours, then thoroughly washed with PBS. The plates were read with a fluorescence microplate reader for fluorescence intensity (Ex 490 nm, Em 525 nm). All data were normalized to the background fluorescence intensity of Streptavidin-488.

[3] = Circular dichroism (CD) of peptides; type: physicochemical; details: 20 mM Sodium Cacodylate; for Ellipticity ratio (222 nm/208 nm) / Ellipticity 208 nm / Ellipticity 222 nm: 1.25 mg/mL; for Ellipticity 208 nm / Ellipticity 222 nm: CD data given as [θ]M×10^−3; for wavelength Minimum of CD profile: 5.0 mg/mL
Description: Data is presented in ellipticity ([θ]M×10^−3) as a function of spectral wavelength (λ).
Sodium cacodylate (SC), 20 mM pH 7.4, without and with 20% TFE was used to reduce phosphate related background signal and enhance detected structures. Circular dichroism (CD) data were collected in millidegrees, 0, and converted to molar ellipticity, [θ]M, and are expressed in units of deg×cm^2×dmol^−1. Scan speeds and digital integration times were 500 nm/min and 1 second, respectively. The data on the Y axis of the CD plots is [θ]M×10^−3. […] Consequently, CD signals are reported in the 190-260 nm range.

[4] = 1H NMR of supernatant of peptide-hyaluronic acid mixtures (loss of HA and peptide from solution); type: binding; details: 5 mg/mL HA
Description: FIGS. 7A-7C show Nuclear magnetic resonant (NMR) proton spectra of representative (i) hyaluronic acid peaks and (ii) biotinyl peptide peaks and for (FIG. 7A) mPEP35, (FIG. 7B) 1-scrm, and (FIG. 7C) 17x-3 in 25 mM sodium acetate buffer at pH 5.2. Samples represent supernatant (soluble component) of mixtures with 5 mg/mL HA in variable peptide mixture of 1.25, 2.5. and 5 mg/mL.
Peptides and HA were suspended in 25 mM sodium acetate buffer (pH 5.2), made up from 19 mM sodium acetate-d3, 6 mM acetic acid-d4, 10% D2O, and 1 mg/ml DSS-D6. All samples were centrifuged at 21,000 G to remove precipitate and the supernatant was collected for analysis, as only the liquid suspension could be used. NMR spectra were collected on an Avance NEO 600 MHz spectrometer at 298K with excitation sculpting used to suppress the water signal. Number of scans and receiver gain were identical for all NMR spectra.
As higher peptide binding was accompanied by apparent gel-like structure on the substrate, the binding event may be characterized by the change in concentration of either peptide or HA remaining in the solution. ^1H NMR is an ideal method for measuring changes in concentration in solution. It provides atom-specific information that can be used to distinguish signals of biotinylated peptides (6.4 ppm) from those of hyaluronic acid (3.5 ppm) as presented in FIG. 7. Sodium acetate (pH 5.2) was chosen as the buffer since it provides better spectral quality of the amide signals than pH 7.4 buffer. Focus was placed on characterizing the binding of mPEP35, 1-scrm, and 17x-3, which reflect a positive control, a negative control, and a potent binder, respectively. Measurements were taken after centrifugation to remove gel that formed when peptide and HA are mixed. It should be noted that only HN peaks of the peptide show slight chemical shift perturbation upon addition of HA.

[5] = tested on: extracellular matrix (ECM) components: Collagen type I, II, III and IV, elastin, hyaluronic acid and Geltrex; test: ECM specificity binding test, whole panel; details: 5.0 mg/ml peptide, FIG. 4
Description: as §1, with “C. on collagens I-IV, elastin, hyaluronic acid, and Geltrex.” for “C.”, “pig/cm^2)” for “μg/cm^2)”, “ECM” for “1-scrm and experimental”
as §2

[6] = Transmission electron microscopy (TEM) of peptide nanostructures; type: physicochemical
Description: The sample and stain were filter-dried in between steps. Samples were collected 24 hours at 37° C. after 30 minutes of sonication. All TEM was performed on a Philips FEI Technai Spirit G2 electron microscope. Peptides were incubated in both PBS and SC.

binding to hyaluronic acid with increasing concentrations of peptide (fluorescence intensity) ([1]; 0-10 mg/ml peptide, PBS pH 7.4, 37° C., HA coating 10 μg/cm^2, FIG. 3): increases dramatically
HA binding compared to mPEP35 ([1]; higher concentrations (5-10 mg/ml)): significantly stronger binder
binding to hyaluronic acid in specificity testing [2]: binds primarily
binding to the ECMs (for 17x-3: the ECMs other than hyaluronic acid) [5]: does not bind significantly
specificity of binding to ECMs [5]: high specificity
Sequence: KTKATVLIKNKQKSKNALKQKIVLLSK [Peptide 17x-3, de novo designed peptide with five B(X7)B domains]
HA binding, overall assessment ([1]; summary and discussion statements): proficient and specific binders; also recorded: HA specific and robust binders
Ellipticity ratio (222 nm/208 nm) [3]: 0.48
Ellipticity 208 nm [3]: −135
Ellipticity 222 nm [3]: −64.4
wavelength Minimum of CD profile [3]: 223 nm
Ellipticity ratio (222 nm/208 nm) ([3]; 20% TFE): 0.72
Ellipticity 208 nm ([3]; 20% TFE): −175
Ellipticity 222 nm ([3]; 20% TFE): −126
wavelength Minimum of CD profile ([3]; 20% TFE): 221 nm
HA spectra retained ([4]; 1.25 mg/mL peptide): ~80%
HA spectra / removal of HA from solution ([4]; 2.5 and 5 mg/mL peptide): nearly gone; also recorded: almost entirely removed; also recorded: pull all HA out of solution
peptide removed from solution ([4]; 2.5 to 5 mg/mL peptide): ~90%
TEM characterization, Phosphate Buffered Saline (i) ([6]; PBS pH 7.4, 0.5% w/v, 30 minutes sonication, 24 hrs at 37° C.): fibers with many striations form larger fibers and the larger fibers tend to form a mesh network
nanofiber formation in TEM, overall ([6]; both PBS and sodium cacodylate): consistent nanofibers; also recorded: predominantly form fibers with striations and furthermore form a mesh network
